doi:10.1101/2025.04.23.650334

T1: GdFen1 (Giardia duodenalis, UniProt A8B672 1-361)
T1 sequence: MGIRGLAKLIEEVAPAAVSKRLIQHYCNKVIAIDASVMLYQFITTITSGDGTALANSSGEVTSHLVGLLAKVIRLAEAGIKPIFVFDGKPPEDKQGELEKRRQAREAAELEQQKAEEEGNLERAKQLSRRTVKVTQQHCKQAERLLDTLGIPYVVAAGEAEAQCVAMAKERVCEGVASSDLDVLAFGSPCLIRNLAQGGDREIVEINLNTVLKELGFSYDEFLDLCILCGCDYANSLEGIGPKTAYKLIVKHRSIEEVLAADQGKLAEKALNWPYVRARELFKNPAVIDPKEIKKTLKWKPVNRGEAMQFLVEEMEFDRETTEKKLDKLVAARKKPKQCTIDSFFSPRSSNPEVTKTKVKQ

B1: Flap probe (structured_DNA)
DNA 1: CGCGGATCCCACTACGCCGATTTTTTTTTTTTTTTTTTTTACGTATGCCACGAATTCGCG
DNA 2: CGCGAATTCGTGGCATACGTAAAAAAAAAAAAAAAAAAAAGAGATGCGAGTCTAGACCGG
DNA 3: CCGGTCTAGACTCGCATCTC
B2: Bubble probe (structured_DNA)
DNA 1: B1 DNA 1
DNA 2: CGCGAATTCGTGGCATACGTTTTTTTTTTTTTTTTTTTTTTCGGCGTAGTGGGATCCGCG

Molecular target: T1, GdFen1
Test: EMSA

| Binder | binding result |
| --- | --- |
| B1 | binds |
| B2 | binds |
